In the domain aggregation screens of Martell et al. (2025):

assay: soluble fraction after stress (log2 fold change); higher = more stays soluble; pooled small domains, quantitative proteomics; settings: stress: 50 degC
Summary of the method: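 Each library was heated to 50°C as a stress step. The libraries, made up of small protein domains, were pooled and analysed at high throughput by quantitative proteomics. The reported value is the base-two logarithm of the fold change in each protein's soluble amount after stress, taken as a measure of aggregation propensity. The higher the value, the more protein stays in solution.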

Sequence	soluble fraction (log2)
HMRIPANIAEDIKKLQKKEHHLHHHLGRDPFDDELAKELEWDTEQVSEIRQMIKNPELLEELLEAEREEE	0.172
HMGERMELTLDNPREAIPVLDAMGFANYQVVDKEHIHIFERLNESALVNMELAKAGIPVKGISITSE	0.018
HMSDLFKYSPYKTLTEEQYKITYQIIERLKTDLSNGIPRISIIDGGAGTGKSILGIFLLKLLVDAQN	0.343
HMAQLPPTATARATSDVSGLTASAALRTLLEQGFVPQIHGSGKVSRQHPPAGTLLEPGSTIQLFLEPS	0.354
HMNESEALIARIENLPPIEDLTEKHAEEVKALMTVYSKLKMSDRILVTNYGVLKKDFDALVKKGFLTNED	0.0784
HMKLPNSFGSIQKLSGNRRKPYRVVKTIGWDENGKQIRKTLGYYETRAKALQELALFNEKPYD	-0.804
HMLPGWMETKFTANVSENTKNRTLEEHVLKMLNNKESAAEFIIFLHEKMMSVSGQVFQLDSR	0.149
HMNANTILNSQRILTQLGFNPGPIDGAFGAKTKGALNAFYTSIGKSYDGLLDSNELVELQKALDVSGLKN	-0.295
HMNSKQELAYQTIRARIVDGSYGPGYRIVIDEVARELGVSPIPVREAVRRLEAEGLITYTRHAGARVVA	-0.184
HMSPFYILDEVEAALDDTNLGRLLEIYEELRENSQLLVITHQKRTMEVGDALYGVTMRGDGVSAVISQRLR	0.303
HMAQLPADMSRVKSADVSDAQLREFVQKAQASGQTETQLFREFSRRGMPTNEINILRSRMVGLQNN	0.0388
HMRGPPQVLVDVELEDGRVGQIGVRNGDDATELAETFVRAFRLEQSFVGRLANVIQGKIRELLHSQ	-0.889
HMLGRPDMSPIPEGSRNNDLHAWGFGRLANHPDNKRQIEADFFERGRISGLGDAEIRASWNSILRQLGHQ	0.14
HMTKIEYTEQEFNDFIQAYKNNRKMFPEDYIVKTQVVFINKGFSKSQADMIIAQIETRLRLQGE	-0.421
HMEIDFDKINSIFNDANKLYEEGDYFEANNLYKNIVSSNIISKDLYYNLGLSYAKIGSNGYAILWYERALN	-0.189
HMGTVISVDKARSIALAKVPGASANDIRIHLDRDDGRQIYEGEIYYNRMEYEFEIDASTGTIIEWSAEHW	-1.73
HMSVSEAELAEKYHADDLEALKSGKLHEFQENLIDRNGKKYTVQTMKDILTLSDGTRLLLGIGLD	0.174
HMPQPDVIEVRQGIVTGMRPDRRTGWLRDEEDAAGEPKSFSIDVITPKGRTPGKGAVVTYTLTNGKITEVK	-0.0415
HMSVDEVEALYLKIAEDRLEGKLPDKVSESDLMRRYGLTKAQLGAILQRIVHEGWIERTPGHGWRFLPIL	-0.259

Sequence	soluble fraction (log2)
HMSVAVKAPLQGTVMKVNVKPGDTVTKGAPVAVIEALKMENDVPAPQDGVVASVDVKSGDSVKTDQVLLTL	0.182
HMKYRPGDVVTLRVARMGEMGAFLDAGTGNTNDDILLHKMQQTEEIKAGQDVKVYLYLDPNRRLTASMKL	-0.108
HMSNRDNPVVLDFKKVKSTEQLDNILEEYIRENFEGYTVKGRMFSSDEGKFIIALALKDDDGKRALVYFDV	-0.635
HMITDNEFLRIVSFLKQRYGIDMSQKKVIMNGRLENYLKSGGWSSFDEYMNDVEKDTSGDLEKTLVNFLTT	-0.537
HMRTMFGQRLRLARKRAGLSMQALADRVTPSVSAQAISKYEADQMMPSSSVLVGLGKALGVSLDFLVGGQ	-0.536
HMLPKLAEEYAIMEIRGKGENLTAKLINKGGDSFMVRNGTVLQTGHRIDEITQTYVRAEINGMKDYLYFA	0.417
HMTELSLSEQAYQQLRRMIVRLDFAPGDVLREEALQEALGMSRTPIREALQRLAREHFVTVIPRRGMFVS	-2.28
HMSDPHEELMSRIARDLSIPLTRVVAEMNTIISKEFGGHIRPEGAVVILAKRSGVEFSDLLPALRENILK	-1.05
HMSSDLSNVVKIIDTLKHKKGALLPILHQIQREIGYIPLKTIDTIAKKLQQTPAEIHGVISFYHQFRTS	0.0942
HMSFGKKLRSLRQEKKLSQVELSKKLNVTSQALSQYELGKRIPDAEMIIRIADFFDVSVDYLLDRT	0.215
HMAMDVKEVLLPGVGLRYEFDNSDGDRIGVIAKRSGDFEVVRYTAADRDAAQPMFRLTDEEADALAQILGA	0.0786
HMLVIMKTGASEEEIGRVIERIEGEGLSAHVSRGTERTVIGVIGQGVDVHRIAGVLGGMSGVESLVPIS	0.0405
HMAAHHIILEEREQLSVSGVEEVESFDENTIVMLTNRGTLIVRGEELHIEKLSLDGGDLRVEGSIDSLTYE	-0.274
HMGTTKGVVDVTVPNGRASQHVKLVVIDDDGGRVVYDGTNAPGDRIVKSVSGSGNVRVQIYLNNALVQEQS	-0.2
HMGRRSKAMLSSALDAVPGLGEMRRKALISQFGSLKKLRGATPEEIAAVPGIGPKLAAAVHEAVSG	0.0505
HMKDTNENLMKMLALLIHAAKIDENYSDEEKELIVNFAEMSSKENLNREQILSIIKSAEEYE	-0.702
HMKFIPPSLEEARAYFVEKGSSEPEAEKFVNHFDSIGWKVGRARTPMKKWKSAANNWIANNREWNQ	-0.407
HMAPGVHVEALLPYTAGSLVSQIREYGNVDAVEYRDTGILLQADVDERLAAQIMDQALEDPV	0.0408
